# Test results as given in PMC4856222.
# Read-outs that look alike come from different tables or passages of the source.
# Columns and labels:
# NKG2D (Homo sapiens) [1] = target: NKG2D (Homo sapiens) (UniProt P26718); conditions: cited from earlier work
# NKG2D (Homo sapiens) [2] = target: NKG2D (Homo sapiens) (UniProt P26718); conditions: cited from earlier work; remark: listed apart in the source
# [3] = target: NKG2D (in the affinity measurement) (UniProt O54709)
# Chain of UniProt O54709 (O54709 whole entry): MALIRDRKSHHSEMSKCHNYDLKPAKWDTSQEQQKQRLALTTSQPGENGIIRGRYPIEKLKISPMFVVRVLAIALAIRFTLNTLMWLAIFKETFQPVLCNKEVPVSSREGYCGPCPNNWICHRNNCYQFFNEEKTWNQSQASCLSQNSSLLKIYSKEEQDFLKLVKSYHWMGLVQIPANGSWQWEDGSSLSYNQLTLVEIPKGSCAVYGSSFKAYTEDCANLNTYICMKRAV
# Chain of UniProt P26718 (P26718 whole entry): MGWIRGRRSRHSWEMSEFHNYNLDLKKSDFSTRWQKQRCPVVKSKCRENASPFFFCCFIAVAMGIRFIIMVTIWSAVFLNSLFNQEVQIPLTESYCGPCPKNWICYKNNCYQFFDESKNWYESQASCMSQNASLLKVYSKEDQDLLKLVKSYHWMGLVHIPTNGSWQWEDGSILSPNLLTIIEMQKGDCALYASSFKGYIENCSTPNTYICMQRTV
Kd [3],Substance,other results
–,MICA (from UniProt Q29983),Kd (NKG2D (Homo sapiens) [1]): 1 µM
–,MICB (from UniProt Q29980),Kd (NKG2D (Homo sapiens) [2]): 1 µM
0.019 µM,secMULT1 (secreted ectodomain fragment of HA-MULT1) (domain or fragment),–
0.013 µM,shed HA-MULT1 (domain or fragment),–
